# Experimental data published in patent US6034212.
# Ends that are not written are not given here. * marks the point of attachment. Biotin = O=C1N[C@H]2[C@H](CS[C@H]2CCCCC(=O)*)N1
# Key:
# [1] = molecular target: GST-WW-YAP fusion protein (WW domain of human YAP in pGEX-2TK) (human); assay: competition of a fixed concentration of labelled GST-WW-YAP on blotted GST-…, densitometry (data not shown)
# [2] = molecular target: GST-SH3-Yes fusion protein (Gallus gallus (Chicken)) (UniProt P09324); assay: competition of labeled GST-YES-SH3 binding to blotted TrpE-YAP65
IC50 [1] [nM],concentration required to partially compete for binding [2] [µM],Binder
750,,Biotin-GTPPPPYTVG [unlabelled decapeptide biotin-… containing the PY motif]
,200,ISQSAPVKQPPPLAPQSPQGGV [PLAP peptide]
